From US7718626B2, “ErbB3 binding protein compositions and methods of use” (University of Maryland, Baltimore, priority 2005, dated 2010)

Experiments:
LNCaP xenografts = assay: LNCaP xenograft tumorigenicity in SCID mice; assay type: in vivo
Procedure: In Vivo Studies in SCID Mice: Male SCID mice, 4-6 weeks of age, were purchased from the National Cancer Institute (Frederick, Md.). Animals were housed in a pathogen-free environment under controlled conditions of light and humidity and received food and water ad libitum. LNCaP cells were grown in complete medium and 800 μg/ml of G418 until 80% confluent. Cells were scraped into phosphate-buffered saline (PBS), collected by centrifugation, and suspended in Matrigel (10 mg/ml) (Collaborative Research, Waltham, Mass.) at 1×10^7 cells/ml. Each mouse received s.c. injections at one site on each flank with 100 μl of cell suspension. Tumors were measured three times a week with calipers, and tumor volumes were calculated by the formula 0.5236×r1^2×r2 (r1<r2). The animal protocols were approved by the Institutional Animal Care and Use Committee at the University of Maryland.
After sacrifice, tumors were excised and fixed in 10% buffered neutral formalin. Sections of formalin-fixed, paraffin-embedded tissues were cut to 5 μm. Slides were stained with an Ebp1 antibody (Upstate) diluted 1:50 using the standard avidin-biotin method (Vector Labs, Burlinghame, Calif.). Peroxidase activity was localized by the diaminobenzidine tetrachloride peroxidase reaction with Harris hematoxylin as a counterstain.
Ebp1 expression suppresses growth of prostate cancer xenografts: The effect of ectopic expression of ebp1 on the tumorigenicity of LNCaP cells was examined. Ebp1- and vector-transfected cells were injected subcutaneously into SCID mice, and tumor growth was monitored. Tumor growth was first noted in both groups at day 20. […] At the end of the study, tumors had developed at more than 85% of the sites injected with the vector control cells, while less than 40% of sites inoculated with ebp1 transfectants developed tumors. This difference was significant at p=0.04 by Fisher's exact test, two-sided. […] Average tumor volumes observed at the end of the study were 268±70 mm^3 as compared with 1214±168 mm^3 for the vector controls (p=0.0003). In addition, the growth rate was also slower for ebp1 transfectants at all time points measured (p=0.0001). […] Thus, cells that grew to form tumors had lost overexpression of the transgene.

[1] = system: AR and POV-1 protein in LNCaP cells; assay: Western blot analysis of LNCaP ebp1 transfectants; assay type: cell-based, human
Procedure: Western Blot Analysis: Briefly, total cell extracts were prepared by direct lysis of cells with buffer containing 50 mM Tris-HCl (pH 7.4), 1 mM EDTA, 250 mM NaCl, 1% Triton X-100, 0.5 mM dithiothreitol (DTT) and 1 mM phenylmethylsulfonyl (PMSF). Protein concentrations were measured using a detergent compatible kit (BioRad, Hercules, Calif.). Proteins were resolved by SDS-PAGE and analyzed by Western blotting as described (Xia et al., 2001, Analysis of the Expression Pattern of Ebp1, an ErbB-3-Binding Protein, Biochem. Biophys. Res. Commun., 289:240-244). The AR antibody was from Santa Cruz Biotechnology (Santa Cruz, Calif.), the Ebp1 antibody from Upstate (Lake Placid, N.Y.), the polyclonal antibody to actin from Sigma (St. Louis, Mo.), and the POV-1 antibody was a gift of Dr. Rodrigo Chugai, National Cancer Institute. The results of the microarray analysis were validated using real-time quantitative reverse-transcription PCR, Western blot, and ELISA methods. […] The expression of POV-1 mRNA and protein were each decreased about two-fold. PSA secretion in the conditioned media of ebp1 and vector control cells was assessed by ELISA. […] Finally, […]-2 mRNA expression was decreased approximately 40%.

B1: Ebp1: ErbB3 binding protein (SEQ ID NO: 2), tested by stable ectopic expression (ebp1 transfection) in LNCaP cells (protein)
chain: MSGEDEQQEQTIAEDLVVTKYKMGGDIANRVLRSLVEASSSGVSVLSLCEKGDAMIMEETGKIFKKEKEMKKGIAFPTSISVNNCVCHFSPLKSDQDYILKEGDLVKIDLGVHVDGFIANVAHTFVVDVAQGTQVTGRKADVIKAAHLCAEAALRLVKPGNQNTQVTEAWNKVAHSFNCTPIEGMLSHQLKQHVIDGEKTIIQNPTDQQKKDHEKAEFEVHEVYAVDVLVSSGEGKAKDAGQRTTIYKRDPSKQYGLKMKTSRAFFSEVERRFDAMPFTLRAFEDEKKARMGVVECAKHELLQPFNVLYEKEGEFVAQFKFTVLLMPNGPMRITSGPFEPDLYKSEMEVQDAELKALLQSSASRKTQKKKKKKASKTAENPTSGETLEENEAGD
modifications: Homo Sapien
With B1 the tumor growth rate (LNCaP xenografts; all time points measured, vs vector controls, p=0.0001) was “slower”, the “inoculation sites with tumors” value (LNCaP xenografts; day 20, s.c. in SCID mice (vector controls 35%)) was 10% and the “inoculation sites that developed tumors” value (LNCaP xenografts; end of the study (vector control more than 85%), p=0.04) was “less than 40%”. For the same molecule, the average tumor volume (LNCaP xenografts; end of the study (vector controls 1214±168 mm^3), p=0.0003) was 268±70 mm^3, the AR protein decrease ([1]; Western blot, LNCaP ebp1 transfectants) was “more than five-fold” and the POV-1 protein decrease ([1]; ebp1 transfectants) was “about two-fold”.
